In US6514747B2 (UT-Battelle, LLC, priority 1993, dated 2003):
Like-named read-outs stand apart in the source and are kept apart here.

Assays:
human MC4-R = biological target: T1, human MC4-R (Homo sapiens, UniProt P32245); experiment: α-MSH activation of human MC4-R in transfected 293 cells (adenylyl cyclase); format: cell-based
T1 construct: expressed in transfected cells; host or cells: 293 cells

[1] = tested on: A7r5 vascular smooth muscle cells; experiment: [Ca2+]i in A7r5 vascular smooth muscle cells (fura 2); format: cell-based; conditions: 400 s, n = 8
Description: The spontaneously fusing L6 skeletal muscle cells [American Type Culture Collection (ATCC), Bethesda, MD] were grown in 75-cm^2 flasks in Dulbecco's modified Eagle's medium with 10% glucose (DMEM) supplemented with 5% fetal bovine serum (FBS, vol/vol), 5% calf serum supplemented iron enriched (CS, vol/vol, and antibiotics (50 U penicillin/ml and 5 μg of streptomycin/ml). Cultures were maintained in continuous passages (<20) by trypsinization (0.05% trypsin) of semiconfluent nonfused cells. A7r5 vascular smooth muscle cells (ATCC) were grown in the same conditions as for L6 cells. 3T3-L1 cells (ATCC) were grown in 100-mm dishes in DMEM containing 10% FBS and antibiotics. For differentiation of fibroblasts into adipocytes, confluent cells were incubated in DMEM-FBS containing 0.5 mM 3-isobutyl-1-methylxanthine (IBMX; Sigma, St. Louis, Mo.) and 0.25 μM dexamethasone (Dex; Sigma) for 60 h. […]
[Ca^2+]i was measured in L6, A7r5, and HEK-293 cells (Zemel et al., 1995) as previously described and in 3T3-L1 cells as described by Klip and Ramlal (1987). […] [Ca^2+]i levels were then measured fluorometrically in suspensions using dual excitation (340 and 380 nm)-single emission (510 nm) fluorometry as previously described (Zemel et al., 1995). [Ca^2+]i was then calculated by the computer in the fluorometer with the equation of Grynkiewicz et al. (1985). […]

untransfected 293 cells = experiment: adenylyl cyclase assay in untransfected 293 cells; format: cell-based, human; conditions: agouti 0.7 nM
Description: (§1) 293 cells (5×10^5) and 293 cells expressing human TSH-R were preloaded with 5 μCi ^3H-adenine for 1.5 h at 37° C. in a 5% CO2 incubator.
(§2) Medium was aspirated and 2.5% perchloric acid containing 0.1 mM cAMP was used to stop the incubation. Adenylyl cyclase activity was calculated by determining the percent conversion of ^3H-adenine to ^3H-cAMP as described (Salomon, 1991; Johnson and Salomon, 1991). Correlation of cAMP accumulation measured in this assay with actual adenylyl cyclase activity is made under the assumption that isobutymethylxanthine effectively blocks cAMP degradation. Data represent means and standard deviations from triplicate data points.

rat MC3-R = biological target: T2, rat MC3-R (Rattus norvegicus, UniProt P32244); experiment: α-MSH activation of rat MC3-R in transfected 293 cells (adenylyl cyclase); format: cell-based; conditions: agouti 0.7 nM
T2 construct: expressed in transfected cells; host or cells: 293 cells
T2 sequence (P32244 whole entry): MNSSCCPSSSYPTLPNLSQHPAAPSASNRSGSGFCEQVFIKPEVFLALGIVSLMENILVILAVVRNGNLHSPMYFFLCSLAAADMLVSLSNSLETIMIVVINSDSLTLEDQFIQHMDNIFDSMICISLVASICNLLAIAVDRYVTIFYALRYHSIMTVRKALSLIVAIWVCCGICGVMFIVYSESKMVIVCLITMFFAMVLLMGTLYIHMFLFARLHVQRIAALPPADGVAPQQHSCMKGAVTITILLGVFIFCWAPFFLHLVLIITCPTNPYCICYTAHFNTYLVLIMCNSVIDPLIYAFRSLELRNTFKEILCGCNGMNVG

3T3-L1 adipocytes [2] = experiment: [Ca2+]i in 3T3-L1 adipocytes (fura 2); format: cell-based; conditions: for [Ca2+]i Increase over Baseline: 400 s, n = 8
Description: The spontaneously fusing L6 skeletal muscle cells [American Type Culture Collection (ATCC), Bethesda, MD] were grown in 75-cm^2 flasks in Dulbecco's modified Eagle's medium with 10% glucose (DMEM) supplemented with 5% fetal bovine serum (FBS, vol/vol), 5% calf serum supplemented iron enriched (CS, vol/vol, and antibiotics (50 U penicillin/ml and 5 μg of streptomycin/ml). Cultures were maintained in continuous passages (<20) by trypsinization (0.05% trypsin) of semiconfluent nonfused cells. A7r5 vascular smooth muscle cells (ATCC) were grown in the same conditions as for L6 cells. 3T3-L1 cells (ATCC) were grown in 100-mm dishes in DMEM containing 10% FBS and antibiotics. For differentiation of fibroblasts into adipocytes, confluent cells were incubated in DMEM-FBS containing 0.5 mM 3-isobutyl-1-methylxanthine (IBMX; Sigma, St. Louis, Mo.) and 0.25 μM dexamethasone (Dex; Sigma) for 60 h. IBMX and Dex were then removed, and cells remained in DMEM-FBS with 250 μg/ml geneticin and compared with nontransfected HEK-293 cells. All types of cells were maintained at 37° C. in an atmosphere containing 5% CO2 and 100% humidity. Cell culture reagents, FBS, CS, and trypsin-EDTA were obtained from GIBCO/BRL (Grand Island, N.Y.).
Viruses incorporating this vector were produced by standard methods (Lu et al., 1994). Spodoptera frugiperda cells (Sf-9) were propagated in Grace's supplemented medium containing 10% CS and 0.1% Pluronic F68 and used to produce […] viral stocks. Fifteen-liter scale production runs of murine or human agouti were produced using T. ni cells adapted to suspension (JRH Biosciences, Woodland, Calif.). T ni cells were infected 24 h postseeding at a density of 10^6 cells/ml, and conditioned media from infected cells were harvested 48 h after infection filtered through a Whatman 3 filter and purified as recently described (Willard et al., 1995).
[Ca^2+]i was measured in L6, A7r5, and HEK-293 cells (Zemel et al., 1995) as previously described and in 3T3-L1 cells as described by Klip and Ramlal (1987). Monolayers of nonfused L6 cells and confluent A7r5 cells after 14-16 h of starvation in a serum-free culture medium were rinsed with Hanks' balanced salt solution (HBSS), detached by incubation in 2 ml trypsin (0.05%) for 2-3 min at 37° C., and released by pipetting without trypsinization. Cells were harvested by centrifugation at 50 g and resuspended in 1 ml HBSS at a density of ˜10^6 cells/ml. […] [Ca^2+]i levels were then measured fluorometrically in suspensions using dual excitation (340 and 380 nm)-single emission (510 nm) fluorometry as previously described (Zemel et al., 1995). [Ca^2+]i was then calculated by the computer in the fluorometer with the equation of Grynkiewicz et al. (1985). […]

human MSH-R = biological target: T3, human MSH-R (Homo sapiens, UniProt Q01726); experiment: activation of human MSH-R in 293 cells (adenylyl cyclase); format: cell-based; conditions: 0.7 nM agouti
T3 construct: expressed in transfected cells; host or cells: human embryonic kidney 293 cells (printed '292')
T3 sequence (Q01726 whole entry): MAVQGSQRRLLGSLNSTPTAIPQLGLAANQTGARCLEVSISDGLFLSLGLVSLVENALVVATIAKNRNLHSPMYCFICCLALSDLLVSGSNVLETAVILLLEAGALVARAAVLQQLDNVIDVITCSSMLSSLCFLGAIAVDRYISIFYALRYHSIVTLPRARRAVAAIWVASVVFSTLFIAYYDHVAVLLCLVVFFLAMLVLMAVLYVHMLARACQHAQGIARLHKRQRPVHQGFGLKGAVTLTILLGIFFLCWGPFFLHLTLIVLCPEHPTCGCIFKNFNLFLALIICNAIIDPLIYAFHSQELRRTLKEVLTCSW

human TSH-receptor = biological target: T4, human TSH-receptor (Homo sapiens, UniProt P16473); experiment: TSH-stimulated adenylyl cyclase in TSH-R-transfected 293 cells; format: cell-based; conditions: agouti 0.7 nM
T4 construct: expressed in transfected cells; host or cells: 293 (human embryonic kidney) cells
T4 sequence (P16473 21-764): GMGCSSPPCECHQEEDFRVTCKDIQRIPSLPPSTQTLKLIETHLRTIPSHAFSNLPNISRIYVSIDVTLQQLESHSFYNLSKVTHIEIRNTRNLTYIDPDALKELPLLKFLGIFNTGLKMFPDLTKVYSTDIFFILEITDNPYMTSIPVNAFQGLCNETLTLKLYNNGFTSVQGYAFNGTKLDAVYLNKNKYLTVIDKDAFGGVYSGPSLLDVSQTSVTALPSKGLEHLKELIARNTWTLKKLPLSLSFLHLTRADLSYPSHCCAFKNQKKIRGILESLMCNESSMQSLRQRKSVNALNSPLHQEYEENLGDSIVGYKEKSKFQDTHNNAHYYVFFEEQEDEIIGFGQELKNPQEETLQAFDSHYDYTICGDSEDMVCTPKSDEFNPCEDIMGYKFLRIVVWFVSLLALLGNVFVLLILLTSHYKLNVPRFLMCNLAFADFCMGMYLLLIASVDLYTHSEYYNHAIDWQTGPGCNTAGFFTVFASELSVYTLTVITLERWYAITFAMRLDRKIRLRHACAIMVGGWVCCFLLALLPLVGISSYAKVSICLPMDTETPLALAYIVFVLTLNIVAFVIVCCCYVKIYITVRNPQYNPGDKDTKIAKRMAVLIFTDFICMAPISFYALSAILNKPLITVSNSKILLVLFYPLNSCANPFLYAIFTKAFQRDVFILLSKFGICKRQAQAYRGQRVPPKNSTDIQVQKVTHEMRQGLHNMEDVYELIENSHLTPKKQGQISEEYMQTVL
Description: as §1, §2

murine MSH-R = biological target: T5, murine MSH-R (Mus musculus, UniProt Q01727); experiment: α-MSH activation of murine MSH-R in stably transfected 293 cells (adenylyl cyclase); format: cell-based; conditions: agouti 0.7 nM
T5 construct: expressed in transfected cells; host or cells: 293 cells, stably transfected
T5 sequence (Q01727 whole entry): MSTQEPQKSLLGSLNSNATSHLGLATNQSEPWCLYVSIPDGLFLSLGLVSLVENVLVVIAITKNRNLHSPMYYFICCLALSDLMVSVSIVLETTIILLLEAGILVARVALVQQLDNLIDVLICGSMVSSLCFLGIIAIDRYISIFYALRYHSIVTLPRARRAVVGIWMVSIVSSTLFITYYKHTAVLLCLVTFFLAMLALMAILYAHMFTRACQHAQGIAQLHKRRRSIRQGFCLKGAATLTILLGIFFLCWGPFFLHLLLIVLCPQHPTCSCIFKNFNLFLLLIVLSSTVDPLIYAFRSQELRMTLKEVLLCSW

L6 skeletal myocytes = experiment: [Ca2+]i in L6 skeletal myocytes (fura 2); format: cell-based; conditions: for [Ca2+]i Increase over Baseline: 400 s, n = 8
mouse MC5-R = biological target: T6, mouse MC5-R (Mus musculus, UniProt P41149); experiment: α-MSH activation of mouse MC5-R in transfected 293 cells (adenylyl cyclase); format: cell-based
T6 construct: expressed in transfected cells; host or cells: 293 cells
T6 sequence (P41149 whole entry): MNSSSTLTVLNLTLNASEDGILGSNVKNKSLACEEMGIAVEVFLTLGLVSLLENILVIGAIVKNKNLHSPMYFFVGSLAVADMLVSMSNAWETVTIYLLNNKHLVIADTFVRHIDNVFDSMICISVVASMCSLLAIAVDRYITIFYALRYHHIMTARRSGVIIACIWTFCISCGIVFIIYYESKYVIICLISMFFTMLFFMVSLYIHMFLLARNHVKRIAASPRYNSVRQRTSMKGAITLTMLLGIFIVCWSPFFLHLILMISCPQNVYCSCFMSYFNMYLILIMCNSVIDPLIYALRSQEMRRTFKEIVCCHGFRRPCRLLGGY

3T3-L1 adipocytes [3] = experiment: lipogenesis in 3T3-L1 adipocytes (FAS and SCD mRNA, FAS activity, triglyceride content); format: cell-based

T1 sequence (P32245 whole entry): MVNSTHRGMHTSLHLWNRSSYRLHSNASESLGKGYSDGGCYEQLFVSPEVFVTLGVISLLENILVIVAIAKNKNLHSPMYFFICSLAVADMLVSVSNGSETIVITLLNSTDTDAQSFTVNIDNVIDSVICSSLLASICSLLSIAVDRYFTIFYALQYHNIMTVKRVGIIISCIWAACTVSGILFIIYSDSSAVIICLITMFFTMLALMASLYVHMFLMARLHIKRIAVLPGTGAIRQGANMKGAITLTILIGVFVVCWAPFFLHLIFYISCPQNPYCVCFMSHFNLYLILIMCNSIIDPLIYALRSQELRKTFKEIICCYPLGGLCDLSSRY

B1: agouti: recombinant mouse agouti protein (131 amino acids, SEQ ID NO:2) produced with the baculovirus expression system in T. ni cells (protein, listed as Mus musculus)
chain: MDVTRLLLATLVSFLCFFTVHSHLALEETLGDDRSLRSNSSMNSLDFSSVSIVALNKKSKKISRKEAEKRKRSSKKKASMKKVARPPPPSPCVATRDSCKPPAPACCDPCASCQCRFFGSACTCRVLNPNC
antagonism of α-MSH activation (human MC4-R): potent antagonist | [Ca2+]i Increase over Baseline ([1]; 5 nM Agouti): 74 ± 6 nM | [Ca2+]i Increase over Baseline ([1]; 25 nM Agouti): 46 ± 9 nM | effect on basal adenylyl cyclase levels (untransfected 293 cells): no effect | antagonism of receptor activation (rat MC3-R): did not antagonize | [Ca2+]i Increase over Baseline (3T3-L1 adipocytes [2]; 5 nM Agouti): 73 ± 6 nM | [Ca2+]i Increase over Baseline (3T3-L1 adipocytes [2]; 25 nM Agouti): 33 ± 6 nM | [Ca2+]i increase over baseline (plateau) (3T3-L1 adipocytes [2]; 50 nM agouti, 400 s after agouti addition): 73 ± 6 nM | [Ca2+]i increase (3T3-L1 adipocytes [2]; 50 nM agouti, after 200 s): 44 ± 4 nM | inhibition of MSH-R activation (human MSH-R): No inhibition | effect on ability of TSH to bind its receptor and stimulate adenylyl cyclase (human TSH-receptor): no effect | maximally induced activity of the receptor (murine MSH-R): did not alter | [Ca2+]i Increase over Baseline (L6 skeletal myocytes; 5 nM Agouti): 49 ± 8 nM | [Ca2+]i Increase over Baseline (L6 skeletal myocytes; 25 nM Agouti): 32 ± 1 nM | [Ca2+]i response (L6 skeletal myocytes; 50 nM agouti, no channel blocker): 49 ± 8 nM | Vmax of [Ca2+]i dose-response fit (L6 skeletal myocytes; nonlinear least-squares, y=(Vmax·x)/(K+x)): 123±15.63 | EC50 (L6 skeletal myocytes; nonlinear least-squares, y=(Vmax·x)/(K+x), read-out: K of [Ca2+]i dose-response fit): 62.1 ± 19.4 nM | EC50 (L6 skeletal myocytes; response plateau at 400 s, read-out: apparent EC50 of [Ca2+]i response): 62 ± 19 nM | antagonism of receptor activation (mouse MC5-R; 100 nM agouti): unaffected | antagonism of receptor activation (mouse MC5-R; agouti 0.7 nM): did not antagonize | increase in FAS mRNA levels (3T3-L1 adipocytes [3]; 48 h treatment): 1.5 fold | increase in SCD mRNA levels (3T3-L1 adipocytes [3]; 48 h treatment): 4 fold | cellular triglyceride content (3T3-L1 adipocytes [3]; agouti, 48 h): 0.104±0.008 mg triglycerides/mg protein
